T1: RVFV nucleoprotein (N) (Rift Valley fever virus, UniProt D3K5I7 1-245)
T1 sequence: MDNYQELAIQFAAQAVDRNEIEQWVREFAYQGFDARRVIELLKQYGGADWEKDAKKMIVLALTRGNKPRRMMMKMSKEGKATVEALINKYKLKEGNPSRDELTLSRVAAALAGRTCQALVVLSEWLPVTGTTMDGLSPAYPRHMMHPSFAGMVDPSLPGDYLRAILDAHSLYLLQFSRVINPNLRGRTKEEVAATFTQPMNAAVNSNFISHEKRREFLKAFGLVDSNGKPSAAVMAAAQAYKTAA


Molecular target: T1, RVFV nucleoprotein (N)
Assay: fluorescence bead binding assay

Binder | Kd [nM]
AGATGTCCTGCGTCGAGACACTTCTGCATTACTACGTTGG (ssDNA) [RV-3 (RVF 3)] | 18.6
CTCCAGCGTAAACTACTGAAGACTGTGCCGGAAAGATC (ssDNA) [RV-2 (RVF 2)] | 15.4
CAGAAAAAGTGCCGACCGAACGATGTGTAAGCGCTATGAGA (ssDNA) [RV-5] | 41

— publication PMC11470950
